{"source": "paper PMC8233511", "assay_in_all_cases": "EMSA", "key": {"[1]": {"biological_target": "T1, Oct4 POU domain homodimer (UniProt P20263 131-282)", "T1 sequence (P20263 131-282)": "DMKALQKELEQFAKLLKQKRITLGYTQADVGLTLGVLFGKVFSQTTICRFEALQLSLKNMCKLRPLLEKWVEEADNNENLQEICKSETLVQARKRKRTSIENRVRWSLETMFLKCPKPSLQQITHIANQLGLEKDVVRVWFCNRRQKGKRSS"}, "[2]": {"biological_target": "Oct4 POU domain;Sox17 HMG domain (mouse?;mouse?, UniProt P20263;Q61473 131-282;68-136, |)", "sequence (P20263 131-282, chain 1 of 2)": "as the sequence (P20263 131-282) above", "sequence (Q61473 68-136, chain 2 of 2)": "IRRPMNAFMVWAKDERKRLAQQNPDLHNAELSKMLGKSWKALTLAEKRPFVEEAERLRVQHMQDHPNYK"}, "[3]": {"biological_target": "Oct4 POU domain;Sox2 HMG domain (mouse?;mouse?, UniProt P20263;P48432 131-282;43-111, |)", "sequence (P20263 131-282, chain 1 of 2)": "as the sequence (P20263 131-282) above", "sequence (P48432 43-111, chain 2 of 2)": "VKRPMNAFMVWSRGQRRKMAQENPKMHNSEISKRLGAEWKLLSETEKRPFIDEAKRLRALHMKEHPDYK"}, "Oct4 POU domain": {"biological_target": "Oct4 POU domain (UniProt P20263 131-282)", "sequence (P20263 131-282)": "as the sequence (P20263 131-282) above"}, "[4]": {"biological_target": "T1, Oct4 POU domain homodimer", "remark": "listed apart in the source"}}, "note": "Read-outs that look alike come from different tables or passages of the source.", "data": [{"binder": "MOREA4 (dsDNA) DNA 1: GCCGCCATGAATATTCATGCCGCCGC DNA 2: GCGGCGGCATGAATATTCATGGCGGC", "values": [{"measurement": "binding result", "setting": "[1]", "result": "binds"}]}, {"binder": "MOREC4 (dsDNA) DNA 1: GGCCTCATGCATATGCATGCGGCGG DNA 2: CCGCCGCATGCATATGCATGAGGCC", "values": [{"measurement": "binding result", "setting": "[1]", "result": "binds"}]}, {"binder": "SoxOct compressed (dsDNA) DNA 1: GGCGGCATTGTATGCAAATCGGCGG DNA 2: CCGCCGATTTGCATACAATGCCGCC", "values": [{"measurement": "binding result", "setting": "[2]", "result": "binds"}]}, {"binder": "SoxOct canonical (dsDNA) DNA 1: GCGGCATTGTCATGCAAATCGGCGG DNA 2: CCGCCGATTTGCATGACAATGCCGC", "values": [{"measurement": "binding result", "setting": "[3]", "result": "binds"}]}, {"binder": "Octamer (dsDNA) DNA 1: GGCGGCGGATGCAAATCGGCGGCGG DNA 2: CCGCCGCCGATTTGCATCCGCCGCC", "values": [{"measurement": "binding result", "setting": "Oct4 POU domain", "result": "binds"}]}, {"binder": "MOREA4+1 (dsDNA) DNA 1: GCCGCCATGAATAATTCATGCCGCCG DNA 2: CGGCGGCATGAATTATTCATGGCGGC", "values": [{"measurement": "binding result", "setting": "[1]", "result": "binds"}]}, {"binder": "PORE (dsDNA) DNA 1: GGATCCATTTGCCTTTCAAATGTGG DNA 2: CCACATTTGAAAGGCAAATGGATCC", "values": [{"measurement": "binding result", "setting": "[4]", "result": "binds"}]}]}
